Data published in patent publication US20160177307.

Key:
[1] = tested on: T1, VEGF-121 (Homo sapiens), P15692-9; experiment: competition; conditions: Nap-dU, 2'-OMe; head-to-tail dimer, no linker; VEGF isoform not given
T1 sequence: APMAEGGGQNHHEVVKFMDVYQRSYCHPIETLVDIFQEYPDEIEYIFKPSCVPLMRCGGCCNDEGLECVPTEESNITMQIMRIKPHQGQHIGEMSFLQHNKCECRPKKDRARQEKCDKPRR

[2] = tested on: T2, rVEGF164, P16612-2; experiment: filter; conditions: all P are NapdU, rest DNA; SB18T, 37 C
T2 sequence: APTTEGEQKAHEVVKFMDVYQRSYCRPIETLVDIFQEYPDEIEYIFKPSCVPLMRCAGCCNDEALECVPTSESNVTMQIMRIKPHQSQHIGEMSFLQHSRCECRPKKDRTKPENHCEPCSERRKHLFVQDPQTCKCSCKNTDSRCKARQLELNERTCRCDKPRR

[3] = biological target: PDGF-BB (platelet-derived growth factor BB) (Homo sapiens) (UniProt P01127); experiment: competition
Sequence of PDGF-BB (platelet-derived growth factor BB) (Homo sapiens) (P01127 82-190): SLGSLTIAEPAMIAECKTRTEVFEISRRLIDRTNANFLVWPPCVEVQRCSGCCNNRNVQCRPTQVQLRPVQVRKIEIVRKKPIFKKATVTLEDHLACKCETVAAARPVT

[4] = biological target: PDGF-BB (platelet-derived growth factor BB) (Homo sapiens) (UniProt P01127); experiment: filter
[5] = biological target: PDGF-AB (UniProt P04085+P01127); experiment: filter
Sequence of PDGF-AB (P01127 82-190, chain 2 of 2, other chains not shown): as the sequence (P01127 82-190) above

[6] = tested on: T1, VEGF-121 (Homo sapiens), P15692-9; experiment: filter
[7] = tested on: T3, VEGF-165 (Homo sapiens), P15692-4; experiment: filter
T3 sequence: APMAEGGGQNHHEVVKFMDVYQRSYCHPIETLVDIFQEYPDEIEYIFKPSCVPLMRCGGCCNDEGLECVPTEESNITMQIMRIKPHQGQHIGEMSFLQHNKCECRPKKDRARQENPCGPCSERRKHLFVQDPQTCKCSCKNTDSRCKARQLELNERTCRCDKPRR

[8] = tested on: T4, VEGF-164 (Rattus norvegicus), P16612-2; experiment: filter; conditions: P=Nap-dU
T4 sequence: T2 sequence

[9] = tested on: T1, VEGF-121 (Homo sapiens), P15692-9; experiment: cell_activity; conditions: NapdU at P; 2'-OMe 6,9,12,15,17,18,22,28,29; VEGFR2 phosphorylation, HUVEC
[10] = biological target: PDGF-BB (platelet-derived growth factor BB) (Homo sapiens) (UniProt P01127); experiment: cell_activity; conditions: NapdU at P; 2'-OMe 1,4,6,7,11,14-18,20,21; PDGFRb phosphorylation, Hs27
[11] = BndU at 1,2,7,8,16,17,18,20, Heg at 5, 2'-OMe A3,A11,A21,G24
[12] = Bn-dU, Heg linker, 2'-OMe A3, A11, A19, A21, G24
[13] = NapdU at P, C3 spacer 15,18, specificity control

“CCGTTCAAGTGCTTGTAGGATTTAAATGGCCGTTCAAGTGCTTGTAGGATTTAAATGG [4867-31_395]” showed a Ki [1] of 0.0068 nM.

Work on “CAGCCGTTCAAGTGCTTGTAGGATTTAAA [4867-31_47]” yielded a Kd [2] of 83 nM.

CGACAGCATGTATGCACATCT [5169-4_188] was tested, and the Ki ([3]; as 5169-4_146 plus PS 3' of 4,9,10,11,12, 3'-idT, competition with 32P ligand, SB18T, 37 C) was 0.0086 nM.

Work on TTACGTTACACGCGTTTATAGCG [4149-8_130] yielded a Kd [4, 11] of 0.0759 nM and a Kd [5, 11] of 0.141 nM.

“CCGTTCAAGTGCTTTAGATTTAAATGGTTACGTTACACGCGTTTATAGC [4149-8_315]” gave a Kd ([6]; VEGF-2Heg-PDGF, NapdU, BndU) of 0.758 nM, a Kd ([7]; Nap-dU, Bn-dU, C3, 2 Heg linker, 2'-OMe, VEGF) of 0.086 nM and a Kd ([4]; VEGF-2Heg-PDGF, NapdU, BndU) of 0.119 nM. It also gave a Kd ([5]; VEGF-2Heg-PDGF, NapdU, BndU) of 0.123 nM.

“AGCCGTTCAAGTGCTTGTAGGATTTAAATGG [4867-31_51]” gave a Kd [8] of 0.074 nM, a Kd ([6]; all P are NapdU, rest DNA, SB18T, 37 C, Table 18 gives 728 pM) of 0.2 nM and a Kd ([7]; P=Nap-dU, VEGF) of 0.196 nM. For the same sequence, the Kd ([7]; all P are NapdU, rest DNA, SB18T, 37 C) was 0.11 nM, the Kd ([4]; all P are NapdU, rest DNA, specificity control) was 126 nM and the Kd ([5]; P=Nap-dU) was 14.8 nM.

TTACGTTACACGCGTTTATAGCG [4149-8_273] gave a Kd [4, 12] of 0.0614 nM and a Kd [5, 12] of 0.189 nM.

In the case of “TTACGTTACACGCGTTTATAGCGCCGTTCAAGTGCTTTAGATTTAAATG [4149-8_318]”, the Kd ([6]; PDGF-1Heg-VEGF, NapdU, BndU) is reported as 2.47 nM, the Kd ([7]; Bn-dU, Nap-dU, C3, 1 Heg linker, 2'-OMe, VEGF) is reported as 0.27 nM and the Kd ([4]; PDGF-1Heg-VEGF, NapdU, BndU) is reported as 0.0431 nM. It also gave a Kd ([5]; PDGF-1Heg-VEGF, NapdU, BndU) of 0.0818 nM.

“CCGTTCAAGTGCTTTAGATTTAAATGGTTACGTTACACGCGTTTATAGC [4149-8_314]” gave a Kd ([6]; VEGF-1Heg-PDGF, NapdU, BndU) of 1.55 nM, a Kd ([7]; Nap-dU, Bn-dU, C3, 1 Heg linker, 2'-OMe, VEGF) of 0.143 nM and a Kd ([4]; VEGF-1Heg-PDGF, NapdU, BndU) of 0.136 nM. For the same sequence, the Kd ([5]; VEGF-1Heg-PDGF, NapdU, BndU) was 0.111 nM.

For “TTACGTTACACGCGTTTATAGCGCCGTTCAAGTGCTTTAGATTTAAATG [4149-8_319]”, the Kd ([6]; PDGF-2Heg-VEGF, NapdU, BndU) was 1.07 nM, the Kd ([7]; Bn-dU, Nap-dU, C3, 2 Heg linker, 2'-OMe, VEGF) was 0.125 nM and the Kd ([4]; PDGF-2Heg-VEGF, NapdU, BndU) was 0.0242 nM. It also gave a Kd ([5]; PDGF-2Heg-VEGF, NapdU, BndU) of 0.0302 nM.

“CGACAGCATGTATGCACATCTCGACAGCATGTATGCACATCT [5169-4_134]” showed a Ki ([3]; Nap-dU, head-to-tail dimer, no linker) of 0.028 nM.

“CCGTTCAAGTGCTTGTAGGATTTAAATGG [4867-31_192]” gave a Kd ([6]; NapdU at 4,5,10,13,14,16,21,23,27, 2'-OMe at C6,G9,C12,G15,A17,G18,G28,G29 and 2'-OMe-NapU22, 3'-inverted dT in Tables 26-27, 3'-idT, Table 27 gives 3.1E-11, Table 21 2.3E-11) of 0.011 nM, a Kd ([7]; NapdU at 4,5,10,13,14,16,21,23,27, 2'-OMe at C6,G9,C12,G15,A17,G18,G28,G29 and 2'-OMe-NapU22, 3'-inverted dT in Tables 26-27, 5'-OH form) of 0.041 nM and a Kd ([4]; NapdU at 4,5,10,13,14,16,21,23,27, 2'-OMe at C6,G9,C12,G15,A17,G18,G28,G29 and 2'-OMe-NapU22, 3'-inverted dT in Tables 26-27, specificity control, off-target PDGF-BB) of 57 nM. The IC50 [9] was 2.1 nM.

For CGACAGCATGTATGCACATCT [5169-4_85], the Kd ([4]; NapdU at P, 2'-OMe 1,4,6,7,11,14-18,20,21) was 0.0062 nM and the IC50 [10] was 7.3 nM.

In the case of “CCGTTCAAGTGCTTTAGATTTAAATGG [4867-31_183]”, the Kd ([6]; NapdU at P, C3 spacer 15,18) is reported as 0.091 nM, the Kd ([7]; Nap-dU, C3 spacer at 15 and 18, VEGF) is reported as 0.138 nM and the Kd [4, 13] is reported as 195 nM. It also gave a Kd [5, 13] of 14.5 nM.

In the case of “TTACGACTACGTTACACGCGTTTATAGC [4149-8_39]”, the Kd ([4]; BndU at 1,2,8,12,13,21,22,23,25, rest DNA, SB18T, 37 C, Table 18 gives 87.5 pM) is reported as 0.11 nM and the Kd ([5]; BndU at 1,2,8,12,13,21,22,23,25, rest DNA) is reported as 0.0476 nM.

“GCCGTTCAAGTGCTTGTAGGATTTAAATGGA [4867-31_58]” was tested, and the Kd [8] was 0.21 nM, the Kd ([6]; NapdU at P) was 0.15 nM and the Kd ([7]; NapdU at P) was 0.1 nM.

“CCGTTCAAGTGCTTTAGATTTAAATGGTTACGTTACACGCGTTTATAGC [4149-8_316]” showed a Kd ([6]; VEGF-3Heg-PDGF, NapdU, BndU) of 0.5 nM, a Kd ([7]; Nap-dU, Bn-dU, C3, 3 Heg linker, 2'-OMe, VEGF) of 0.157 nM and a Kd ([4]; VEGF-3Heg-PDGF, NapdU, BndU) of 0.0897 nM. It also gave a Kd ([5]; VEGF-3Heg-PDGF, NapdU, BndU) of 0.137 nM.
